Experimental data from US20150065376A1, “EXPRESSION CONSTRUCTS ENCODING G PROTEIN COUPLED RECEPTORS AND METHODS OF USE THEREOF” (priority 2013, published 2015).
One block for each substance: values may come before it.

Legend:
[1] = target: Cxcr4b; conditions: value used for graph of free Cxcr4b versus free Sdf1, FIG. S3B; read-out: dissociation constant; cited from earlier work
[2] = target: Cxcr4b-Kate2 fusion protein (zebrafish Sdf1-signaling sensor) (zebrafish); assay: cell-based or functional assay
[3] = target: Cxcr7a (zebrafish CXCR7 ortholog) (zebrafish); assay: cell-based or functional assay
[4] = target: Cxcr7b (zebrafish CXCR7 ortholog) (zebrafish); assay: cell-based or functional assay
[5] = target: T1, human CXCR4 (Homo sapiens, UniProt P61073); assay: human Sdf1-signaling sensor in Flp-In T-REx 293 cell line (CXCR4-Kate2 internalization); type: cell-based; conditions: Flp-In T-REx 293 cells, tetracycline-induced sensor, within 40 minutes, not in vehicle treated controls
T1 construct: Kate2 (TagRFP2, RFP variant); host or cells: Flp-In T-REx 293 (HEK 293), tetracycline-inducible, cell line number 4
T1 sequence (P61073 whole entry): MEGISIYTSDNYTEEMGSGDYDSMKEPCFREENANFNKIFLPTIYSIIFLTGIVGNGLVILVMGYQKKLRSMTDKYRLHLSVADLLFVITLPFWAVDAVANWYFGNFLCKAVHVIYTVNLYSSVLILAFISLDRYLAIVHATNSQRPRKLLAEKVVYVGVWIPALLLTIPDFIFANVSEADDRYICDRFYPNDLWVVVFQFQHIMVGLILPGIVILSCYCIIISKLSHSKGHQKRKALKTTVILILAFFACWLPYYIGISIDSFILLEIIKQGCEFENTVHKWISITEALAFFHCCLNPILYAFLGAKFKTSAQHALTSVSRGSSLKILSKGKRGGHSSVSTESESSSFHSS
From the text: In order to test whether the human version of the Sdf1-signaling sensor responds to human SDF1 in a similar fashion to that of the fish version of the Sdf1-signaling sensor, the present inventors generated a Flp-In™ T-REx™ 293 cell line that expresses human CXCR4 fused to the RFP variant Kate2 followed by an IRES and a membrane-tethered GFP from a tetracycline-inducible promoter. Because the flippin technology allows one to generate a single copy transgene in a specific genomic location of HEK 293 cells, expression levels from the human Sdf1-signaling sensor are fairly uniform (FIGS. S4A and C).
Human CXCR4-Kate2-IRES-GFP-CaaX was inserted into the FRT sites in the genome of the Flp-In™ T-REx™ cell line using hygromycin selection (Invitrogen). Five different cell lines were established and cell line number 4 was used to characterize the activity of recombinant human SDF1 on the human Sdf1-signaling sensor. Expression of the human Sdf1-signaling sensor was induced using tetracycline and cells were imaged 24 hours after induction of expression using a Leica SP5 II confocal microscope.

[6] = system: sdf1a; assay: linearity of the Sdf1-signaling sensor, sdf1a morpholino injection; type: in vivo, zebrafish; conditions: increasing amounts of morpholino injected, embryos imaged at 36 hpf, FIG. 3C
From the text: Using ImageJ (NIH), a mask was applied to the GFP channel with a threshold to selectively mark the cell membranes of the cells that comprise the primordium. All values in the GFP and Kate2 channels outside of the mask were discarded and the photon counts from the Kate2 channel were divided by the photon counts from the GFP channel for each voxel to yield a Z-stack in which each value-containing voxel represents the ratio of Kate2 fluorescence to GFP fluorescence on the cell membrane. A custom ImageJ (NIH) macro language script was written in order to automate this analysis. The data was then averaged across the dorsal-ventral axis and placed in 1-micron bins in order to yield 100 data points for still images or 80 data points for time-lapse images that correspond to the first 100 μm or the first 80 μm, respectively, from the front tip of the primordium. […]
Tg(cxcr4b:cxcr4b-kate2-IRES-memGFP) embryos were injected alternately with 0, 0.5, 1.0 and 1.5 nl of 0.025 mM or 0.1 mM sdf1a morpholino solution (Doitsidou et al., 2002). […] Image collection and gradient quantification were performed as described above. The shift of the Sdf1-signaling gradient was determined by fitting the average ratios to a second order polynomial using the least squares regression in ImageJ (NIH) and extracting the y-intercept. […]

Substance: Sdf1: chemokine Sdf1, free ligand binding reversibly to Cxcr4b
Kd [1]: 4 nM

average FmemRed/FmemGreen ratio of the Sdf1-signaling sensor in the absence of Sdf1a protein [2]: 2.6 | average FmemRed/FmemGreen ratio of the Sdf1-signaling sensor upon global Sdf1a over-expression [2]: 0.2 | mean FmemRed/FmemGreen at the leading edge of wild-type primordia, 36 hpf [2]: < 0.6 | mean FmemRed/FmemGreen in the rear of wild-type primordia, 36 hpf [2]: 2.3 | reduction in the local concentration of signaling competent Sdf1a in the rear of the primordium [3]: 86% | reduction in the steepness of the Sdf1-signaling gradient across the primordium in the absence of cxcr7a activity [3]: 31% | reduction in the local concentration of signaling competent Sdf1a in the rear of the primordium [4]: 86% | reduction in the steepness of the Sdf1-signaling gradient across the primordium in the absence of cxcr7b activity [4]: 40%
Substance: Sdf1a protein (zebrafish chemokine Sdf1a) (ligand)

Substance: Sdf1a-GFP (Sdf1a fused to green fluorescent protein) (ligand)
fraction of total Sdf1a-GFP sequestered in the rear of the primordium [3]: 1% | fraction of total Sdf1a-GFP sequestered in the rear of the primordium [4]: 1% | reduction of Sdf1a-GFP protein levels on the stripe outside the primordium upon Cxcr7b over-expression [4]: 29%

internalization of CXCR4-Kate2 / activation of the human Sdf1-signaling sensor [5]: induces internalization of CXCR4-Kate2
Substance: recombinant human SDF1: recombinant human chemokine SDF1, ligand of CXCR4
internalization of CXCR4-Kate2 / activation of the human Sdf1-signaling sensor ([5]; listed as Recombinant human SDF1): activates the human version of the Sdf1-signaling sensor

Substance: sdf1a morpholino: translation-blocking morpholino against sdf1a, SEQ ID NO: 69 (Doitsidou et al., 2002) (ATCACTTTGAGATCCATGTTTGCA; all phosphorodiamidate morpholino (PMO))
shift of FmemRed/FmemGreen ratios across the primordium [6]: progressively shifts the FmemRed/FmemGreen ratios across the primordium to higher values
